± gives the uncertainty stated by the source.
Assay: self-splicing fitness, log relative to wild type (ln ratio); higher = more splicing; Tetrahymena group I intron in knt gene, E. coli kanamycin selection, DiMSum; sequences stand for … in CUCUCU…GGAGGGAAAAGUUAUCAGGCAUGCACCUGGUAGCUAGUCUUUAAACCAAUAGAUUGCAUCGGUUUAAAAGGCAAGACCGUCAAAUUGCGGGAAAGGGGUCAACAGCCGUUCAGUACCAAGUCUCAGGGGAAACUUUGAGAUGGCCUUGCAAAGGGUAUGGUAAUAAGCUGACGGACAUGGUCCUAACCACGCAGCCAAGUCCUAAGUCAACAGAUCUUCUGUUGAUAUGGAUGCAGUUCACAGACUAAAUGUCGGUCGGGGAAGAUGUAUUCUUCUCAUAAGAUAUAGUCGGACCUCUCCUUAAUGGGAGCUAGCGGAUGAAGUGAUGCAACACUGGAGCCGCUGGGAACUAAUUUGUAUGCGAAAGUAUAUUGAUUAGUUUUGGAGUACUCGUGGUCG
Summary of the method: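 DiMSum derived fitness as the error-weighted combination of fold changes across replicates, kanamycin versus no kanamycin, normalised to wild type. E. coli BL21(DE3) held the library, which randomised all eight P1ex-region intron nucleotides within the knt kanamycin-resistance gene on pET-22b(+). Six replicate transformations grew overnight at 37°C or 30°C on LB agar with or without 25 μg/mL kanamycin, also containing 100 μg/mL carbenicillin, 50 μM IPTG and 0.2% rhamnose, and pooled colonies were amplicon-sequenced on an Illumina HiSeq 2500.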

Row | Sequence | self-splicing fitness (ln) (30 °C) | self-splicing fitness (ln) (37 °C)
1 | GGUUAGCAAUAUUACGUAAG | -0.619 ± 0.14 | -0.436 ± 0.23
2 | GGUAAGCAAUAUUACGAGCC |  | -2.76 ± 0.34
3 | AAUGAGCAAUAUUACGACAC | -2.71 ± 0.31 | 
4 | GAAUAGCAAUAUUACGCCGU | -1.6 ± 0.1 | -0.466 ± 0.11
5 | CUUCAGCAAUAUUACGAGCU | -3.82 ± 0.29 | -3.41 ± 0.33
6 | GAGCAGCAAUAUUACGUGAU | -2.21 ± 0.082 | -0.968 ± 0.084
7 | CACCAGCAAUAUUACGACCA | -1.94 ± 0.13 | -0.0102 ± 0.16
8 | AAAAAGCAAUAUUACGUUUU | -2.42 ± 0.13 | -2.39 ± 0.14
9 | CAAAAGCAAUAUUACGGAGG | -0.939 ± 0.096 | -0.844 ± 0.13
10 | AGGUAGCAAUAUUACGUUCG | -0.889 ± 0.014 | -0.42 ± 0.034
11 | GGCCAGCAAUAUUACGUUAU | -2.4 ± 0.13 | -0.702 ± 0.11
12 | CCGCAGCAAUAUUACGUGCC | -3.67 ± 0.24 | -3.75 ± 0.3
13 | AAACAGCAAUAUUACGCGAA | -1.95 ± 0.096 | -1.43 ± 0.11
14 | GAACAGCAAUAUUACGCGGU | -3.6 ± 0.19 | -2.82 ± 0.21
15 | AAAGAGCAAUAUUACGCCGG | -3.8 ± 0.42 | -2.53 ± 0.24
16 | UAUUAGCAAUAUUACGGUUC | -3.84 ± 0.39 | -3 ± 0.29
17 | AUUUAGCAAUAUUACGAUUC | -1.73 ± 0.22 | -0.798 ± 0.26
18 | CCAGAGCAAUAUUACGUCGC | -3.95 ± 0.32 | -2.49 ± 0.29
19 | GGAUAGCAAUAUUACGACCU | 0.689 ± 0.32 | 0.93 ± 0.25
20 | GAGGAGCAAUAUUACGGAAU | -3.82 ± 0.37 | 

Row | Sequence | self-splicing fitness (ln) (30 °C) | self-splicing fitness (ln) (37 °C)
21 | UCGAAGCAAUAUUACGUCUA | 0.0685 ± 0.078 | 0.296 ± 0.077
22 | GAGAAGCAAUAUUACGAAUU | -2.27 ± 0.14 | -1.13 ± 0.15
23 | CGGCAGCAAUAUUACGUAUG | -1.55 ± 0.048 | -0.303 ± 0.065
24 | UCCUAGCAAUAUUACGGCGG | -3.94 ± 0.27 | -2.92 ± 0.2
25 | UUUAAGCAAUAUUACGAGGG | -2.32 ± 0.19 | -1.57 ± 0.23
26 | CAUUAGCAAUAUUACGGUCA | -2.02 ± 0.3 | -1.63 ± 0.3
27 | ACCCAGCAAUAUUACGCUCG | -3.65 ± 0.33 | -2.23 ± 0.26
28 | UCCCAGCAAUAUUACGCAAC | -3.01 ± 0.37 | -2.19 ± 0.37
29 | ACCAAGCAAUAUUACGGCUC | -2.09 ± 0.07 | -0.63 ± 0.084
30 | UAUGAGCAAUAUUACGGAAA | -1.13 ± 0.49 | 
31 | UCGUAGCAAUAUUACGCAAC |  | -2.42 ± 0.48
32 | AAGGAGCAAUAUUACGUUGA | -3.47 ± 0.23 | -2.52 ± 0.19
33 | CACAAGCAAUAUUACGAUUG | -2.41 ± 0.064 | -1.15 ± 0.075
34 | AGAAAGCAAUAUUACGAAAU | -1.52 ± 0.1 | -1.91 ± 0.15
35 | UCUGAGCAAUAUUACGCAGC | -2.75 ± 0.42 | 
36 | AAAUAGCAAUAUUACGCCCC | -1.71 ± 0.32 | 0.0438 ± 0.38
37 | UCAUAGCAAUAUUACGUCCG | 0.46 ± 0.24 | -1.67 ± 0.29
38 | CGCUAGCAAUAUUACGGCGC | -1.1 ± 0.29 | 
39 | UGUUAGCAAUAUUACGGCAU | -3.67 ± 0.32 | -1.95 ± 0.27
40 | ACGUAGCAAUAUUACGGUGC | -3.86 ± 0.4 | -2.01 ± 0.22

— the supplement of paper PMC7877785
